Earlier results in article PMC5347372.

Target: alpha-factor (Saccharomyces cerevisiae) (UniProt P01149)

In the case of Ste2 (from UniProt D6VTK4), the Kd is given as 7 nM.
